Assay results from patent publication US20220135628A1 (OXFORD UNIVERSITY INNOVATION, published 2022).
Like-named read-outs stand apart in the source and are kept apart here. No end group written: not given here.

Tests used:
SpyTag003-MBP [1] = assay: SDS-PAGE with sfGFP fluorescence, pH 7.0, 25 C
SpyTag002-MBP = target: T1, SpyTag002-MBP (also: fused to MBP, sequence and linker not given here); assay: SDS-PAGE with sfGFP fluorescence, pH 7.0, 25 C
T1 construct: not shown: construct pET28a SpyTag002-MBP, GenBank MF974389
T1 chain: VPTIVMVDAYKRYK

SpyTag-MBP = target: T2, SpyTag-MBP; assay: SDS-PAGE with sfGFP fluorescence, pH 7.0, 25 C
T2 construct: not shown: construct pET28a-SpyTag-MBP, Addgene 35050

SpyTag003-MBP [2] = assay: SDS-PAGE with sfGFP fluorescence, pH 7.0, 25 C; remark: listed apart in the source
SpyTag003 DA-MBP = target: T3, SpyTag003 DA-MBP (also: fused to MBP, sequence and linker not given here); assay: isothermal titration calorimetry, 20 C, PBS pH 7.4, non-covalent complex
T3 chain: RGVPHIVMVAAYKRYK

B1: SpyCatcher003-sfGFP (designed binder)
chain: VTTLSGLSGEQGPSGDMTTEEDSATHIKFSKRDEDGRELAGATMELRDSSGKTISTWISDGHVKDFYLYPGKYTFVETAAPDGYEVATPIEFTVNEDGQVTVDGEATEGDAHT
notes: also called SpyCatcher003 fused to the N-terminus of super-folder GFP; not shown: super-folder GFP (sfGFP) C-terminal of the catcher
With B1 the “Rate constant (second-order, isopeptide bond formation)” value (“Rate constant” for short) (SpyTag003-MBP [1]) was 550000 M⁻¹ s⁻¹, the “Rate constant” value (SpyTag002-MBP) was 83000 M⁻¹ s⁻¹ and the “Rate constant” value (SpyTag-MBP) was 24000 M⁻¹ s⁻¹. The “Rate constant” value (SpyTag003-MBP [2]) was 550000 M⁻¹ s⁻¹.

B2: SpyCatcher003 (designed binder)
chain: B1 chain
notes: also called 003 Catcher
In the case of B2, the Kd (SpyTag003 DA-MBP) is reported as less than 10 nM.
